According to US11278600B2, “Human alpha-galactosidase variants” (Codexis, Inc., priority 2014, dated 2022):
Positions count from the first letter of the chain named.

B1: 570 (protein)
chain: LDNGLARTPTMGWLHWERFMCNLDCQEEPDSCISEKLFMEMAERMVSEGWKDAGYEYLCIDDCWMAPQRDSEGRLQADPQRFPHGIRQLANHVHSKGLKLGIYADVGNKTCAGFPGSFGYYDIDAQTFADWGVDLLKFDGCYCDSLENLADGYKHMSLALNRTGRSIVYSCEWPLYMWPFQKPNYTEIRQYCNHWRNFADIDDSWASIKSILDWTSRNQERIVDVAGPGGWNDPDMLVIGNFGLSWDQQVTQMALWAIMAAPLFMSNDLRHISPQAKALLQDKDVIAINQDPLGKQGYQLRKGDNFEVWERPLSGDAWAVAIINRQEIGGPRSYTIPVASLGKGVACNPACFISQLLPVKRQLGFYNWTSRLKSHINPTGTVLLQLENTMQMSLKDLL
modifications: Synthetic Polypeptide sequence of Variant No. 570 of mature Human GLA
B2: 573 (protein)
chain: B1 chain with S314A, S354T
modifications: Synthetic Polypeptide sequence of Variant No. 573 of mature Human GLA
B3: 574 (protein)
chain: B1 chain with S314H, S354T
modifications: Synthetic Polypeptide sequence of Variant No. 574 of mature Human GLA
B4: 572 (protein)
chain: B1 chain with N305L, S354T
modifications: Synthetic Polypeptide sequence of Variant No. 572 of mature Human GLA
B5: 571 (protein)
chain: B1 chain with N305K, S354T
modifications: Synthetic Polypeptide sequence of Variant No. 571 of mature Human GLA
B6: 575 (protein)
chain: B1 chain with S314N, S354T
modifications: Synthetic Polypeptide sequence of Variant No. 575 of mature Human GLA

How the values were obtained:
Type in all cases: biochemical
[1] = HTP-analysis of yeast culture supernatants, no challenge (MUGal hydrolysis); details: activity of the variant/activity of Rd3BB (SEQ ID NO: 13)
Method in brief: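 Activity read as 4-methylumbelliferyl α-D-galactopyranoside hydrolysis: fluorescence (355/448 nm) after sodium carbonate stop, following 30-180 min at 37° C with 2 mM MUGal stock at pH 4.6–4.8. Enzyme source is unchallenged culture supernatant of INVSc1 yeast expressing GLA variants, grown 66-84 h at 30° C.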

[2] = HTP-analysis of supernatants pretreated with base (MUGal hydrolysis); details: activity of the variant/activity of Rd3BB (SEQ ID NO: 13); challenge at pH 9.7
Method in brief: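 GLA variants were secreted by transformed INVSc1 yeast grown 66-84 h at 30° C. Supernatants were exposed to neutral-to-basic buffers (pH 7.0-9.7) at 37° C for 1-18 h, then assayed with MUGal in acidic citrate/McIlvaine buffer, with fluorescence read after quenching.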

[3] = HTP-analysis of supernatants pretreated with acid (MUGal hydrolysis); details: activity of the variant/activity of Rd3BB (SEQ ID NO: 13); challenge at pH 3.7
Method in brief: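 Fluorescence of MUGal hydrolysis (Ex. 355 nm, Em. 448 nm) is read after sodium carbonate quench. The enzyme source is INVSc1 yeast culture supernatant, first exposed to pH 3.3-4.3 McIlvaine buffer at 37° C. for 1-3 h, then reacted at pH 4.8 for 30-180 minutes.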

Molecule | Relative Activity of GLA Variants After No Challenge (NC) [1] | Relative Activity of GLA Variants After Challenge at pH 9.7 [2] | Relative Activity of GLA Variants After Challenge at pH 3.7 [3]
B1 | + (+ = 1.5 to 5 relative activity over Rd3BB (SEQ ID NO: 13)) | ++ (++ = >5 to 10 relative activity over Rd3BB (SEQ ID NO: 13)) | + (+ = 1.5 to 5 relative activity over Rd3BB (SEQ ID NO: 13))
B2 | + (+ = 1.5 to 5 relative activity over Rd3BB (SEQ ID NO: 13)) | ++ (++ = >5 to 10 relative activity over Rd3BB (SEQ ID NO: 13)) | + (+ = 1.5 to 5 relative activity over Rd3BB (SEQ ID NO: 13))
B3 | + (+ = 1.5 to 5 relative activity over Rd3BB (SEQ ID NO: 13)) | ++ (++ = >5 to 10 relative activity over Rd3BB (SEQ ID NO: 13)) | + (+ = 1.5 to 5 relative activity over Rd3BB (SEQ ID NO: 13))
B4 | + (+ = 1.5 to 5 relative activity over Rd3BB (SEQ ID NO: 13)) | ++ (++ = >5 to 10 relative activity over Rd3BB (SEQ ID NO: 13)) | +++ (+++ = >10 relative activity over Rd3BB (SEQ ID NO: 13))
B5 | + (+ = 1.5 to 5 relative activity over Rd3BB (SEQ ID NO: 13)) | ++ (++ = >5 to 10 relative activity over Rd3BB (SEQ ID NO: 13)) | + (+ = 1.5 to 5 relative activity over Rd3BB (SEQ ID NO: 13))
B6 | + (+ = 1.5 to 5 relative activity over Rd3BB (SEQ ID NO: 13)) | ++ (++ = >5 to 10 relative activity over Rd3BB (SEQ ID NO: 13)) | + (+ = 1.5 to 5 relative activity over Rd3BB (SEQ ID NO: 13))
